Experiment [1] deals with T1, biotinylated HLA A*0201/HCMV pp65 peptide […] complex (human HLA-A*02:01 and B2M; HCMV pp65 …, strain, biotin (in vivo, BirA, AviTag)).
T1 construct: copies: + +
The experiment can be described thus: ELISA. Particulars: both partners purified.

Experiment [2] has as its target T2, biotinylated HLA B*0801/HCMV IE1 peptide … complex (Homo sapiens HLA-B*08:01 and B2M; HCMV …, strain, biotin (in vivo, BirA, AviTag)).
T2 construct: copies: + +
The experiment can be described thus: ELISA. Particulars: both partners purified.

Experiment [3] concerns the target T3, biotinylated HLA B*3501/HCMV pp65 peptide … complex (Homo sapiens HLA-B*35:01 and B2M; HCMV …, strain, biotin (in vivo, BirA, AviTag)).
T3 construct: copies: + +
The experiment can be described thus: ELISA. Conditions: both partners purified. A general note: ELISA stands for enzyme-linked immunosorbent assay.

For experiment [4], the target named is T4, HLA B*3501 presenting HCMV pp65 peptide … on cells (Homo sapiens HLA-B*35:01 and B2M on …, strain).
T4 construct: copies: + +
The experiment can be described thus: flow cytometry on cells. Conditions: one partner purified. For orientation: A flow cytometer gives signals particle by particle.

Experiment [5] concerns the target T5, HLA B*0702 presenting HCMV pp65 peptide … on cells (Homo sapiens HLA-B*07:02/B2M; HCMV pp65 …, strain).
T5 construct: copies: + +
The experiment can be described thus: flow cytometry on cells. Conditions: one partner purified.

Experiment [6] has as its target T6, biotinylated HLA B*0702/HCMV pp65 peptide … complex (Homo sapiens HLA-B*07:02/B2M; HCMV pp65 …, strain, biotin (in vivo, BirA, AviTag)).
T6 construct: copies: + +
The experiment can be described thus: ELISA. Particulars: both partners purified.

For experiment [7], the target named is T7, biotinylated HLA A*0101/HCMV pp65 peptide […] complex (human HLA-A*01:01 and B2M; HCMV pp65 …, strain, biotin (in vivo, BirA, AviTag)).
T7 construct: copies: + +
The experiment can be described thus: ELISA. Particulars: both partners purified.

The target in experiment [8] is T8, HLA A*2402 presenting HCMV pp65 peptide … on cells (Homo sapiens HLA-A*24:02/B2M; HCMV pp65 …, strain).
T8 construct: copies: + +
The experiment can be described thus: flow cytometry on cells. Conditions: one partner purified.

For experiment [9], the target named is T9, biotinylated HLA A*2402/HCMV pp65 peptide … complex (Homo sapiens HLA-A*24:02/B2M; HCMV pp65 …, strain, biotin (in vivo, BirA, AviTag)).
T9 construct: copies: + +
The experiment can be described thus: ELISA. Conditions: both partners purified.

Experiment [10] deals with T10, HLA A*0201 presenting the HCMV pp65 peptide […], on cells (human HLA-A*02:01 and B2M; HCMV pp65 …, strain).
T10 construct: copies: + +
The experiment can be described thus: flow cytometry on cells. Conditions: one partner purified.

For experiment [11], the target named is T11, HLA A*0201 on MRC-5 cells loaded with control peptide 13 (…, Trypanosoma cruzi KMP-11) (human HLA-A*02:01 and B2M; Trypanosoma …, strain).
T11 construct: copies: + +
The experiment can be described thus: flow cytometry on cells. Conditions: one partner purified.

B1: Fab A11 (Fab, V domains shown)
VH: EVQLVQSGAEVKRPGASVKVSCKASGYTFTSYGIGWVRQAPGQGLEWMGWISAYSGNTNYAQNFQGRITMTTDTSTSTAYMELRSLRSDDTAVYYCARDFGKWDLPMYGMDVWGQGTTVTVSS
VL: QSVLTQPPSVSVAPGGTARISCGGNNIGTKNVHWYQQKPGQAPVLVMYYNSDRPAGIPERFSGSNSGNTATLTITRVEPGDEADYYCQVWDDRRDHYVFGTGTEVTVL
notes: source: E. coli TG1, purified (IMAC, Talon beads)
Regarding B1, in experiment [1], the binding result is listed as “binds”.

B2: Fab A9 (Fab, V domains shown)
VH: EVQLVQSGAEVRNPGASVKVSCKASGYTFTSHGINWLRQAPGQGLEWMGWISAYSGNTNYAQNLQDRVSMTTDTSTSTAYMELRSLRSDDTAVYYCARDFGKWDLPMYGMDVWGQGTTVTVSS
VL: QSVLTQPPSVSAAPGQRVTISCSGSSSDIGKSGKNYVAWYQQLPGMAPKLLIHDTIKRPSGIPDRFSASKSGTSATLDITGLQTGDEGDYYCGTWNNNLSAYVFGTGTTITVL
notes: as for B1
Consider B2, for which, in experiment [1], the binding result is recorded as “binds”.

B3: Fab 2A2 (Fab, V domains shown)
VH: QVQLVQSGAEVKKPGASVKVSCKASGYTFTDYYVHWVRQAPGQGLEWMGRINPNSGGTNYAQKFQGRVTMTRDASISTAYMELSRLRSDDTAVYYCAREMGYGGKSEDYWGQGTLVTVSS
VL: SYVLTQPPSLSVAPGKTARIICGGNNIGSKSVHWYQQKPGQPPVLVVHDDGDRPSGIPERFSGSNSGITATLTITGVEAGDEADYYCQVWDYSSDHVIFGGGTKLTVL
notes: as for B1
Take B3: in experiment [2], the binding result is “binds”.

B4: Fab C5 (Fab, V domains shown)
VH: EVQLVQSGAEVKRPGASVKVSCKASGYTFTNYDINWVRQATGQGLEWMGWMNPNSGNTGYAQKFQGRVTITADKSTSTAYMELSSLRSEDTAVYYCARQGRLRFLEWYMFDPWGQGTLVTVSS
VL: DVVMTQSPLSLPVTPGEPASISCRSSQSLLHSNGYNYLDWYLQKPGQSPQLLIYLGSIRASGVPDRVTGSGSGTDFTLQISRVEAEDVGVYYCMQGLQTPYTFGQGTKLEIK
notes: as for B1
With B4, the binding result in experiment [3] was “binds”.

B5: biotinylated Fab C5 (Fab, V domains shown)
VH: EVQLVQSGAEVKRPGASVKVSCKASGYTFTNYDINWVRQATGQGLEWMGWMNPNSGNTGYAQKFQGRVTITADKSTSTAYMELSSLRSEDTAVYYCARQGRLRFLEWYMFDPWGQGTLVTVSS
VL: DVVMTQSPLSLPVTPGEPASISCRSSQSLLHSNGYNYLDWYLQKPGQSPQLLIYLGSIRASGVPDRVTGSGSGTDFTLQISRVEAEDVGVYYCMQGLQTPYTFGQGTKLEIK
notes: source: E. coli TG1, biotinylated in vivo, purified (IMAC, Talon beads)
Take B5: the binding result in experiment [4] is reported as “binds”.

B6: biotinylated Fab C7 (Fab, V domains shown)
VH: EVQLVQSGAEVKKPGASVKVSCKASGYTFTSYYMHWVRQAPGQGLEWMGIINPSDGSTSYAQKFQGRVTMTRDTSTSTAYMELSSLRSEDTAVYYCARYIGIMDVWGQGTTVTVSS
VL: not shown
notes: as for B5
With B6, the binding result in [5] is “binds”.

B7: Fab C7 (Fab, V domains shown)
VH: EVQLVQSGAEVKKPGASVKVSCKASGYTFTSYYMHWVRQAPGQGLEWMGIINPSDGSTSYAQKFQGRVTMTRDTSTSTAYMELSSLRSEDTAVYYCARYIGIMDVWGQGTTVTVSS
VL: not shown
notes: as for B1
For the molecule B7, the binding result in experiment [6] is “binds”.

B8: Fab C7 tetramer (Fab, V domains shown)
VH: EVQLVQSGAEVKKPGASVKVSCKASGYTFTSYYMHWVRQAPGQGLEWMGIINPSDGSTSYAQKFQGRVTMTRDTSTSTAYMELSSLRSEDTAVYYCARYIGIMDVWGQGTTVTVSS
VL: not shown
notes: copies: 4 + 4
Take B8: the binding result in experiment [5] was “binds”.

B9: Fab A6 (Fab, V domains shown)
VH: EVQLVQSGAEVKKPGASVKVSCKASGYTFTSYYMHWVRQSPGQGLEWMGIINPSGGSTSYAQKFQGRVTMTRDTSTSTVYMELSSLRSEDTAVYYCARNGYCSSTSCYDAFDIWGQGTMVTVSS
VL: QSALTQPASVSGSPGQSITISCTGTSSDVGGYNYVSWYQQHPGKAPKVLIYDVNQRISGVPDRFSGSKSGNTASLTISGLQAEDEADYYCCSYAGSSSWVFGGGTRLTVL
notes: as for B1
Regarding B9, in experiment [7], the binding result was “binds”.

B10: biotinylated Fab D10 (Fab, V domains shown)
VH: EVQLVQSGGGVVQPGRSLRLSCAASGFTFSSYGMHWVRQAPGKGLEWVAVISYDGTNTDYADSVKGRFTISRDNSKNTLYLQMNSLRAEDTAVYYCARARGIGVSGTLYFDFWGQGTLVTVSS
VL: EIVMTQSPGTLSLSPGERATLSCRASQSVSSSYLAWYQQKPGQAPRLLIYGASTRATGIPDRFSGSGSGTDFTLTINRLEPEDFAVYYCQQYGSSPGTFGQGTRLEIK
notes: as for B5
Take B10: the binding result in experiment [5] is reported as “binds”.

B11: Fab D10 (Fab, V domains shown)
VH: EVQLVQSGGGVVQPGRSLRLSCAASGFTFSSYGMHWVRQAPGKGLEWVAVISYDGTNTDYADSVKGRFTISRDNSKNTLYLQMNSLRAEDTAVYYCARARGIGVSGTLYFDFWGQGTLVTVSS
VL: EIVMTQSPGTLSLSPGERATLSCRASQSVSSSYLAWYQQKPGQAPRLLIYGASTRATGIPDRFSGSGSGTDFTLTINRLEPEDFAVYYCQQYGSSPGTFGQGTRLEIK
notes: as for B1
For B11, the binding result in [6] was “binds”.

B12: biotinylated Fab C12.2 (Fab, V domains shown)
VH: QITLKESGPTLVKPTQTLTLTCTFSGFSLSTSGVAVGWIRQPPGKALEWLALIYWDDDKHYSPSLKNRLTITKDTSKNQVVLTLTNMDPVDTATYYCARMTYSGSWYSFYYFDYWGQGTLVTVSS
VL: EIVLTQSPATLSFSPGERATLSCRASQSVGSYLAWYQQRPGQAPRPLIYDATNRATGIPTRFSGSGSGTDFTLTISSLEPEDFATYYCQHRRTFGRGTKLEIK
notes: as for B5
Turning to B12, the binding result in experiment [8] was “binds”.

B13: Fab C12/2 (Fab, V domains shown)
VH: QITLKESGPTLVKPTQTLTLTCTFSGFSLSTSGVAVGWIRQPPGKALEWLALIYWDDDKHYSPSLKNRLTITKDTSKNQVVLTLTNMDPVDTATYYCARMTYSGSWYSFYYFDYWGQGTLVTVSS
VL: EIVLTQSPATLSFSPGERATLSCRASQSVGSYLAWYQQRPGQAPRPLIYDATNRATGIPTRFSGSGSGTDFTLTISSLEPEDFATYYCQHRRTFGRGTKLEIK
For the molecule B13, in experiment [9], the binding result is “binds”.

B14: C1-ETA´ immunotoxin (HLA A*0201-restricted, HCMV-specific Fab antibody C1 coupled to Pseudomonas Exotoxin A) (Fab, V domains shown)
VH: EVQLVQSGAEVKKPGSSVKVSCKASGGTFSSYAISWVRQAPGQGLEWMGGIIPIFGTANYAQKFQGRVTITADESTSTAYMELSSLRSEDTAVYYCARGLAAPDYFDYWGQGTLVTVSS
VL: QSVVTQPPSVSGAPGQRVTISCTGSSSNIGAGYDVHWYQQLPGTAPKLLIYGNSNRPSGVPDRFSGSKSGTSASLAITGLQAEDEADYYCQSYDSSLSGPFYVFGTGTKVTVL
notes: source: E. coli TG1
Turning to B14, the binding result in experiment [10] is listed as “binds”; in experiment [11], “no binding (tested: 50 µg/ml)”.

B15: Fab C1 (Fab, V domains shown)
VH: EVQLVQSGAEVKKPGSSVKVSCKASGGTFSSYAISWVRQAPGQGLEWMGGIIPIFGTANYAQKFQGRVTITADESTSTAYMELSSLRSEDTAVYYCARGLAAPDYFDYWGQGTLVTVSS
VL: QSVVTQPPSVSGAPGQRVTISCTGSSSNIGAGYDVHWYQQLPGTAPKLLIYGNSNRPSGVPDRFSGSKSGTSASLAITGLQAEDEADYYCQSYDSSLSGPFYVFGTGTKVTVL
notes: as for B1
For B15, in experiment [1], the binding result is “binds”.

B16: Fab F3 (Fab, V domains shown)
VH: QVQLVQSGAEVKKPGASVKVSCKASGYTFTSYYMHWVRQAPGQGLEWMGIINPSGGSTSYAQKFQGRVTMTRDTSTSTVYMELSSLRSEDTAVYYCASGITGAHDYWGQGTLVTVSS
VL: QSVVTQPPSVSGAPGQRVTISCTGSSSNIGAGYDVHWYQQLPGTAPKLLIYENSIRPSGVPDRFSGSKSGTAASLAITGLQAEDEAEYYCQSYDNSLSGPNWVFGGGTKLTVL
notes: as for B1
B16: the binding result in experiment [7] is given as “binds”.
